Target: T1, recombinant glutathione-S-transferase (GST)-tagged SETD6 (UniProt Q8TBK2 1-473)
T1 construct: SET domain-containing protein 6 (SETD6), a 53 kDa protein lysine methyltransferase; also called GST-SETD6; GST SETD6
T1 sequence (looked up): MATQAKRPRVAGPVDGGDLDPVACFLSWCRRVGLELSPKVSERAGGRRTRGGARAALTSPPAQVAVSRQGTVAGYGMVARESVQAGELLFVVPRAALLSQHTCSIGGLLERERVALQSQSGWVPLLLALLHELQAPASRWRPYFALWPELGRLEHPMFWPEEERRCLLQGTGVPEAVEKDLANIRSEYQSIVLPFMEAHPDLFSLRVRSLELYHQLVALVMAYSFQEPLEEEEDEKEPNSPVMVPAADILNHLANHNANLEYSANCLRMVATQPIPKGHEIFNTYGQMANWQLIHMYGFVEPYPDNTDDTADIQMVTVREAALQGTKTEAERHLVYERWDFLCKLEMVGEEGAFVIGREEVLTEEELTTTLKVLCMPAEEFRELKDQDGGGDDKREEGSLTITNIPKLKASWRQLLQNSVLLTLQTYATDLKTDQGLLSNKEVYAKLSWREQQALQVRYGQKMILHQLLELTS
Assay: ELISA; His-SUMO-E2F1 (2 ug) in PBS immobilised on a 96-well plate, 1 h room temperature, blocked with 3% BSA; 0.5 ug GST-SETD6 in 1% BSA in PBS and Tween-20 for 1 h at room temperature; detected with anti-GST and HRP-conjugated secondary antibody, absorbance at 450 nm
Conditions: both partners purified

B1: recombinant His-SUMO-E2F1 (natural protein)
chain: not shown
notes: the same insert was cloned into pET-SUMO and pGEX-6p1; also called His-SUMO-E2F1 WT; source: E. coli Rosetta, purified (nickel-nitrilotriacetic acid beads or HisTrap column)
B1: binds.
